In patent publication US20210104294A1 (published 2021):

Tests used:
Assay in all cases: in vitro peptide-MHC affinity measurement
HLA-A*29:02 = HLA-A*29:02 (human, UniProt P04439 25-308)
HLA-B*51:01 = HLA-B*51:01 (human)
HLA-B*54:01 = HLA-B*54:01 (human, UniProt P01889 25-309)
HLA-A*01:01 = biological target: T1, HLA-A*01:01 (human, UniProt P04439-2 25-302)
T1 chain: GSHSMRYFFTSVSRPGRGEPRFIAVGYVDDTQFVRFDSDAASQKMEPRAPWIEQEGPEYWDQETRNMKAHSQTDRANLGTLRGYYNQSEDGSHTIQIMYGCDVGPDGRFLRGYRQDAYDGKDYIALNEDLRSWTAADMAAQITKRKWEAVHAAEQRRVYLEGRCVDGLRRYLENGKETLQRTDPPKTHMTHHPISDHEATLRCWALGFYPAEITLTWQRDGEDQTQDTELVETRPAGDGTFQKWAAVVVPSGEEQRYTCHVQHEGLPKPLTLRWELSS

YLPALKVEY was tested, and the IC50 (HLA-A*29:02) was 0.0026 µM.

VALLVGEKV was tested, and the IC50 (HLA-B*51:01) was 0.144 µM.

Binder YGFVNYVTA has an IC50 (HLA-B*54:01) of 0.006 µM.

With GLDDKLLHY the IC50 (HLA-A*29:02) was 0.0213 µM.

FYPELKLAY was tested, and the IC50 (HLA-A*29:02) was 0.0002 µM.

YIIEREPLI showed an IC50 (HLA-B*51:01) of 1.79 µM.

With VPPLVPKVL the IC50 (HLA-B*51:01) was 0.0563 µM.

For DAPLNIRSI, the IC50 (HLA-B*51:01) was 0.0065 µM.

DGRLVINRV gave an IC50 (HLA-B*51:01) of 0.0135 µM.

SAPVNFISA was tested, and the IC50 (HLA-B*54:01) was 0.0166 µM.

TTDGYLLRL gave an IC50 (HLA-A*01:01) of 0.0789 µM.

With FVEILIPVA the IC50 (HLA-B*54:01) was 0.0122 µM.

In the case of DTEFPNFKY, the IC50 (HLA-A*01:01) is reported as 0.0808 µM.

KLDLLEQEY gave an IC50 (HLA-A*01:01) of 0.0706 µM.

Binder YVPEHWEYY has an IC50 (HLA-A*01:01) of 0.0111 µM.

With ALSDLALHF the IC50 (HLA-A*29:02) was 0.006 µM.

With FPKETFEGP the IC50 (HLA-B*54:01) was 0.0164 µM.

Work on LPLDIQIFY yielded an IC50 (HLA-A*29:02) of 0.0046 µM.

ATDGKVLLW was tested, and the IC50 (HLA-A*01:01) was 0.191 µM.

YPVYQPVGP was tested, and the IC50 (HLA-B*54:01) was 0.0017 µM.

DAYPQRIKF was tested, and the IC50 (HLA-B*51:01) was 0.031 µM.

For HFLDRHLVF, the IC50 (HLA-A*29:02) was 0.0016 µM.

GLPDLVAKY gave an IC50 (HLA-A*29:02) of 0.0297 µM.

In the case of DGLLRVLTV, the IC50 (HLA-B*51:01) is reported as 0.0002 µM.

Binder DGYVVKETI has an IC50 (HLA-B*51:01) of 0.0134 µM.

In the case of IIYPTPKVV, the IC50 (HLA-B*51:01) is reported as 0.038 µM.

For DGLRDLPSI, the IC50 (HLA-B*51:01) was 0.0126 µM.

With TPESKIRFV the IC50 (HLA-B*51:01) was 0.0848 µM.

FLWPEAFLY showed an IC50 (HLA-A*01:01) of 0.0013 µM.
